Legend:
Assay in all cases: IP/MS, LZTR1 wild type-FLAG, U87
[1] = molecular target: T1, USP47 (human, UniProt Q96K76 1-1375, limits assumed)
T1 sequence (looked up): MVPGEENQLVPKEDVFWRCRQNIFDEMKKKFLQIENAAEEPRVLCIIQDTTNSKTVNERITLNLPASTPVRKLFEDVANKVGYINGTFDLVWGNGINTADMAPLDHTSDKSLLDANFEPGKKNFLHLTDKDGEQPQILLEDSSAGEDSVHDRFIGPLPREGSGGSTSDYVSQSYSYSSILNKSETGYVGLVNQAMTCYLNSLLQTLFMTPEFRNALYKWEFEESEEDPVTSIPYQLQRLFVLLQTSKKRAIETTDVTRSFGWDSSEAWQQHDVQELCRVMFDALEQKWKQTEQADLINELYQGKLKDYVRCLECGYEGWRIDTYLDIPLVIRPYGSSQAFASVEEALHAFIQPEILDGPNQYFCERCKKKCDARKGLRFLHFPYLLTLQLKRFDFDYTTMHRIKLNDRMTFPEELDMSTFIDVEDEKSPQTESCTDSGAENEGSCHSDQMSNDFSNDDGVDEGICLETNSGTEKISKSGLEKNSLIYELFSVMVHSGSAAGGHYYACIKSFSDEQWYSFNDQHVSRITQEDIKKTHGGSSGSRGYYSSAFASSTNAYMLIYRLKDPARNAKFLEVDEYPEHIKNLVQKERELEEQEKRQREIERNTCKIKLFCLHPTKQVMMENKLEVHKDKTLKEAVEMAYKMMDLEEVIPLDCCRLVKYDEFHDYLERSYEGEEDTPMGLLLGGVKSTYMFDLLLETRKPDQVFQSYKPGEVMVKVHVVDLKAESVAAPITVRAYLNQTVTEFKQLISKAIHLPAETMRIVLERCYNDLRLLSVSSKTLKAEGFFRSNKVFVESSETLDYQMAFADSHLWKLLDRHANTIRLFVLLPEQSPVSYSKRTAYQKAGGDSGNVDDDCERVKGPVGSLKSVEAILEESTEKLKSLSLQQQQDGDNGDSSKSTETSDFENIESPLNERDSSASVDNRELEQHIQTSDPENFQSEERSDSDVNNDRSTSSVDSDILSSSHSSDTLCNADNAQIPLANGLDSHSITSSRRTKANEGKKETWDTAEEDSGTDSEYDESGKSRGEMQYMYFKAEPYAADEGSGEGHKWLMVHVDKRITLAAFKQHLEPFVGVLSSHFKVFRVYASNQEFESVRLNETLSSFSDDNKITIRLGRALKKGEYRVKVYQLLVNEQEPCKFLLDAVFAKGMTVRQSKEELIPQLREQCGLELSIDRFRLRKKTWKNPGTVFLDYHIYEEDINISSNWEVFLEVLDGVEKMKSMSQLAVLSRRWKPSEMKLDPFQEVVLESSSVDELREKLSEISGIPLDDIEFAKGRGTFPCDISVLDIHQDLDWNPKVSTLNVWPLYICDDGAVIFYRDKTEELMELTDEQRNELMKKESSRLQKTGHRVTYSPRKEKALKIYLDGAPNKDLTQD
Method in brief: (§1)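 Gel slices were reduced with 5 mM DTT, alkylated with 11 mM IAA and digested overnight at 37° C. with trypsin. Peptides were analysed on an Orbitrap Fusion Tribrid by LC-MS/MS.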

[2] = molecular target: MAP4K4 (human, UniProt O95819 2-1239, limits assumed)
Method in brief: as §1

[3] = molecular target: MYO10 (human, UniProt Q9HD67 1-2058, limits assumed)
Method in brief: as §1

Measured: binding result

Sequence of MYO10 (Q9HD67 whole entry): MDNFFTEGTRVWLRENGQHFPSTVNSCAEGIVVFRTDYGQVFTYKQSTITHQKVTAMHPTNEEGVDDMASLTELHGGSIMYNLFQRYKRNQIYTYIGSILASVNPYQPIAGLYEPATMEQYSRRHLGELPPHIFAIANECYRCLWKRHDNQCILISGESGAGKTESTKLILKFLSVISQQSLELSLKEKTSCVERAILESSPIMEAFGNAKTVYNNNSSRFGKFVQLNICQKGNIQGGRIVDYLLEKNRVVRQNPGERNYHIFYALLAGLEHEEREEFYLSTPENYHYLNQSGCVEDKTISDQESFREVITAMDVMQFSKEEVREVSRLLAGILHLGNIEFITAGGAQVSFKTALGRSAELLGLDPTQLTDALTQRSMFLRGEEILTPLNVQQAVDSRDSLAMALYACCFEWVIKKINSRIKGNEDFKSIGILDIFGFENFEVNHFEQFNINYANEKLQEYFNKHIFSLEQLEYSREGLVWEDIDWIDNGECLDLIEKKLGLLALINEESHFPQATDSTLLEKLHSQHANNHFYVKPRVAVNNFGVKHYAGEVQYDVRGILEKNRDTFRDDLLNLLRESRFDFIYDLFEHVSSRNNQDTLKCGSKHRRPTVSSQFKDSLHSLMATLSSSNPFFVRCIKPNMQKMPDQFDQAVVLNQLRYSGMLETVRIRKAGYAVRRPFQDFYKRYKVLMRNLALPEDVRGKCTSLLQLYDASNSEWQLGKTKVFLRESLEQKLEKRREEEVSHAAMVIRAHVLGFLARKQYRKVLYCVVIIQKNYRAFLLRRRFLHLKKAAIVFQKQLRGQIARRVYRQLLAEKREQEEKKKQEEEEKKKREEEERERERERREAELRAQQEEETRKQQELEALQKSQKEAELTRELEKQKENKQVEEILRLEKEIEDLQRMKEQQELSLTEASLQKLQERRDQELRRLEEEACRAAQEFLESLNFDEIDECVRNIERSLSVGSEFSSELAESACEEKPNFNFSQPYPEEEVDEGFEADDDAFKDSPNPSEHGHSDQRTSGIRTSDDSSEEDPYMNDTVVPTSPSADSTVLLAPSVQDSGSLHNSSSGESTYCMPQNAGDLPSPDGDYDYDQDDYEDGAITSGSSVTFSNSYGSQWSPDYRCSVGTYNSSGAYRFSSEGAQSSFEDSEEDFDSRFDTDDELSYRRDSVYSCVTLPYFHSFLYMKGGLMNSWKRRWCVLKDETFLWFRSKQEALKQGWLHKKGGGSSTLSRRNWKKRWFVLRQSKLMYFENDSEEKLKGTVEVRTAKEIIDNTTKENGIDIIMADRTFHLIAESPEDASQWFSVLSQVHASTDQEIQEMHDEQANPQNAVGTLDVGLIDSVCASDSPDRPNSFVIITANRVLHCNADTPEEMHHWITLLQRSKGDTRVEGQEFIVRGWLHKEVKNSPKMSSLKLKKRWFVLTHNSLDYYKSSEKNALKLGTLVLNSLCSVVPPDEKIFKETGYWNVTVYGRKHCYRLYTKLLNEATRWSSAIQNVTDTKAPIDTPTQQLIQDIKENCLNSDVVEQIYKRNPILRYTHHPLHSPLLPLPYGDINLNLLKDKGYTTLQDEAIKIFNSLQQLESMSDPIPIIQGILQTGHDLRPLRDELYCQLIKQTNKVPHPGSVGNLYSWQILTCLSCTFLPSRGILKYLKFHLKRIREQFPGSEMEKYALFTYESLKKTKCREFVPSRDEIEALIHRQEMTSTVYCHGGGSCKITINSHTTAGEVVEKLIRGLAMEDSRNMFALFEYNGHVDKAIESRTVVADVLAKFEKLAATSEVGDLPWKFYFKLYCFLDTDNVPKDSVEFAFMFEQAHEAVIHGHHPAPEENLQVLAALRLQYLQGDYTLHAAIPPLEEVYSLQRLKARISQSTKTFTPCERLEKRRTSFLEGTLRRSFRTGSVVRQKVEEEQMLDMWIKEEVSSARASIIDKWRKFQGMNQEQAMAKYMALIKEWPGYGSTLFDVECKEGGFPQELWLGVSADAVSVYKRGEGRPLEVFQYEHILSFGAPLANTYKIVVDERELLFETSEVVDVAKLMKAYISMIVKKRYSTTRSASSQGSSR
Sequence of MAP4K4 (O95819 2-1239 limits assumed): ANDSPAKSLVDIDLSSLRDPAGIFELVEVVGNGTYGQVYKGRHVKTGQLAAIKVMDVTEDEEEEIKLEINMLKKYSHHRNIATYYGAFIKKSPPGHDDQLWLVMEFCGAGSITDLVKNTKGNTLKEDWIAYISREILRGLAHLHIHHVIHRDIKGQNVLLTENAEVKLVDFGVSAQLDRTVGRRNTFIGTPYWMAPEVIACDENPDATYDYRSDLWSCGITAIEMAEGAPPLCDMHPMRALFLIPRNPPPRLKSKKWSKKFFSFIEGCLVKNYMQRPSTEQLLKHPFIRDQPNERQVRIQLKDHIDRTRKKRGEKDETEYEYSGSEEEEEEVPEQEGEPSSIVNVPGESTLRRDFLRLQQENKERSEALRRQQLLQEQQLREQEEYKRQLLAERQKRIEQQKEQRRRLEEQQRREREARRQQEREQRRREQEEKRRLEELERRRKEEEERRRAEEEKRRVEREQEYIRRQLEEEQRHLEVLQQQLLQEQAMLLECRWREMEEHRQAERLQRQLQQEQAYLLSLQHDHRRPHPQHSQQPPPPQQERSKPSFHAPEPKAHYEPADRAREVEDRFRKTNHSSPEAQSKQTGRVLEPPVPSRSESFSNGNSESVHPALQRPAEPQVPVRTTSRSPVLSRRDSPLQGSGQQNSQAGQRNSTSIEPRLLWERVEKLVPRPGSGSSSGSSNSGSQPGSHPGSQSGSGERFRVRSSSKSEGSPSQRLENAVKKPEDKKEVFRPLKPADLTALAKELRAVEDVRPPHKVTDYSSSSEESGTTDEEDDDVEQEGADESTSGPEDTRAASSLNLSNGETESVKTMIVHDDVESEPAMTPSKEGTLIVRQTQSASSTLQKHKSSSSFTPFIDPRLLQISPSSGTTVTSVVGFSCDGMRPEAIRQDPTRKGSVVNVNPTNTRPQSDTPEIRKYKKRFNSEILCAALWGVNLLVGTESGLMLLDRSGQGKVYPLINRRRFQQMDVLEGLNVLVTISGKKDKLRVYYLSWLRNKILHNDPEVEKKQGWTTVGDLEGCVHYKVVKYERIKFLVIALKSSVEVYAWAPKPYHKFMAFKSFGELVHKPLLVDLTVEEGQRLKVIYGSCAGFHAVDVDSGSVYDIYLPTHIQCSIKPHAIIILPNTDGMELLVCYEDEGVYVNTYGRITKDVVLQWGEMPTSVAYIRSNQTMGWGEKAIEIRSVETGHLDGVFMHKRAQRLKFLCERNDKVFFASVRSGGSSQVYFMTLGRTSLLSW

B1: LZTR1-FLAG (other, human, UniProt Q8N653 1-840, looked up)
chain: MAGPGSTGGQIGAAALAGGARSKVAPSVDFDHSCSDSVEYLTLNFGPFETVHRWRRLPPCDEFVGARRSKHTVVAYKDAIYVFGGDNGKTMLNDLLRFDVKDCSWCRAFTTGTPPAPRYHHSAVVYGSSMFVFGGYTGDIYSNSNLKNKNDLFEYKFATGQWTEWKIEGRLPVARSAHGATVYSDKLWIFAGYDGNARLNDMWTIGLQDRELTCWEEVAQSGEIPPSCCNFPVAVCRDKMFVFSGQSGAKITNNLFQFEFKDKTWTRIPTEHLLRGSPPPPQRRYGHTMVAFDRHLYVFGGAADNTLPNELHCYDVDFQTWEVVQPSSDSEVGGAEVPERACASEEVPTLTYEERVGFKKSRDVFGLDFGTTSAKQPTQPASELPSGRLFHAAAVISDAMYIFGGTVDNNIRSGEMYRFQFSCYPKCTLHEDYGRLWESRQFCDVEFVLGEKEECVQGHVAIVTARSRWLRRKITQARERLAQKLEQEAAPVPREAPGVAAGGARPPLLHVAIREAEARPFEVLMQFLYTDKIKYPRKGHVEDVLLIMDVYKLALSFQLCRLEQLCRQYIEASVDLQNVLVVCESAARLQLSQLKEHCLNFVVKESHFNQVIMMKEFERLSSPLIVEIVRRKQQPPPRTPLDQPVDIGTSLIQDMKAYLEGAGAEFCDITLLLDGHPRPAHKAILAARSSYFEAMFRSFMPEDGQVNISIGEMVPSRQAFESMLRYIYYGEVNMPPEDSLYLFAAPYYYGFYNNRLQAYCKQNLEMNVTVQNVLQILEAADKTQALDMKRHCLHIIVHQFTKVSKLPTLRSLSQQLLLDIIDSLASHISDKQCAELGADI
notes: Expressed in HEK 293T, HeLa or U87 cells; used as cell lysate; also called LZTR1 wild type-FLAG; LZTR1 WT; not shown: FLAG tag at the C-terminus
binds: all assays above
